Results reported in patent US9469841B2, “Prodrug activation in cancer cells using molecular switches” (The Johns Hopkins University, priority 2008, dated 2016).
Read-outs that look alike come from different tables or passages of the source.

Assays:
MBP317-347 = experiment: Effect of beta-cyclodextrin on maltose activation of switch MBP317-347; type: biochemical
Protocol: The rate of beta-lactam hydrolysis as a function of maltose (dots) follows the maltose-binding isotherm (blue). […] Initially, in the absence of any ligand, the rate of beta-lactam hydrolysis catalyzed by the switch is low. At about 5 minutes, maltose is added and the enzyme activity of the switch is turned on. At about 10 minutes, an excess of beta-cyclodextrin is added. This replaces maltose in the binding site and turns the enzyme activity of the switch off. At about 16 minutes, an excess of maltose is added which replaces beta-cyclodextrin and turns the enzyme activity of the switch back on.
Natural allosteric proteins often have modest (<10-fold) differences in function between the effector-bound and effector-unbound states. However very large differences in activity between the two states would be advantageous for many applications of protein switches. […] Using an iterative strategy involving random circular permutation and random insertion several switches were created that approach being on/off in nature (6). […] The creation of these switches was facilitated by a new directed evolution algorithm for non-homologous recombination that was developed for efficiently exploring the sequence space comprised of the possible fusions of the two proteins. […]

HIF-1a = HIF-1a (Homo sapiens, UniProt Q16665); settings: cited from earlier work
Sequence of HIF-1a (Q16665 786-826 limits assumed): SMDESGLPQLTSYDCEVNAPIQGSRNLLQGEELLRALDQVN
Sequence of HIF-1a (Q09472 331-417 partner limits assumed): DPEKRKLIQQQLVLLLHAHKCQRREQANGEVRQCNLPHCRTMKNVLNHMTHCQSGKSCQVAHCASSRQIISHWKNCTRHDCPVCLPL

GIA39 E. coli cells = experiment: Growth on "negative selection" minimal plates supplemented with 5FC; type: cell-based; design: key: + = growth; − = no growth
Protocol: Minimal media was used in the selection schemes and was based on a product mixture described by Sigma. For 1 L it containing 20 g of Select Agar (Sigma# A5054), 6.7 g of Yeast nitrogen base without amino acids (Sigma #Y0626), 1.92 g of Yeast synthetic drop-out without uracil (Sigma #Y1501), glucose to 2%, 1 mM IPTG and 50 μg/mL of chloramphenicol. For “negative” selection media, the above media was supplemented with 75 μg/mL or 25 μg/mL of 5FC and 1 μg/mL of uracil. For “positive” selection media, supplementation was with 25 μg/mL of cytosine, 1 mM arabinose and 100 μg/mL of ampicillin Each Bio-Assay dish contained 250 mL of selection media and each standard Petri dish contained 25 mL of media.
The selection scheme was developed to isolate library members whose CD activity is “off” in the absence of HIF-1a but “on” in the presence of HIF-1a. […] A GST-HIF-1a fusion was created that is under the control of the arabinose promoter on a plasmid that can coexist with the pDIM-C8 library plasmids. This “HIF-1a plasmid” is a variation of the pGEX plasmid and has ampicillin resistance. During selections, this HIF-1a plasmid will either be present to produce HIF-1a and activate the hybrid protein switches, or absent to avoid any production of HIF-1a.
During the negative selection, no HIF-1a plasmid was present in the cells. Thus, hybrids that are active in the absence of HIF-1a will convert the 5FC into 5FU and kill the cell. But, hybrids that are not active in the absence of HIF-1a will be able to use the minimal amount of uracil provided and grow to form colonies. The negative selection was performed twice in succession using the Bio-Assay dish size plates (2 plates each time with about 600,000 cells plated on each plate). The first time the negative selection media contained 75 μg/mL 5FC. The colonies that grew on this plated were recovered and then underwent a second negative selection to help ensure that any pDIM-C8 plasmids encoding a wild-type yCD were removed from the library. The second negative selection was performed the same as the first except that 25 μg/mL of 5FC was used. The cells that survived the second negative selection were harvested and then aliquoted. One aliquot was used to isolate library plasmids that were used in the positive selection that followed.
This experiment confirmed that the switch genes conferred sensitivity to 5FC depends on induction of expression of HIF1-a (see Table 2, below).
Cells harboring the switch genes in pDIM-C8 or cells with the same plasmid together with the HIF1-a plasmid were plated on minimal media plates supplemented with 5FC (i.e. the negative selection conditions). […]

E. coli cells = experiment: MIC of ampicillin for E. coli cells expressing switch, with and without maltose; type: cell-based; settings: E. coli cells expressing MBP or BLA separately

OC[C@H]1O[C@@H]2O[C@H]3[C@H](O)[C@@H](O)[C@@H](O[C@H]4[C@H](O)[C@@H](O)[C@@H](O[C@H]5[C@H](O)[C@@H](O)[C@@H](O[C@H]6[C@H](O)[C@@H](O)[C@@H](O[C@H]7[C@H](O)[C@@H](O)[C@@H](O[C@H]8[C@H](O)[C@@H](O)[C@@H](O[C@H]1[C@H](O)[C@H]2O)O[C@@H]8CO)O[C@@H]7CO)O[C@@H]6CO)O[C@@H]5CO)O[C@@H]4CO)O[C@@H]3CO [beta-cylcodextrin, beta-cyclodextrin]
Effect on maltose activation of the switch (MBP317-347): antagonist preventing maltose-activation

CH1 domain: CH1 domain of p300, 100 amino acids, binds HIF-1a
Kd (HIF-1a; in vitro at 25° C., read-out: dissociation constant of the CH1 domain and HIF-1a): ~120 nM | Kd (HIF-1a; minimal domains CH1 and C-TAD of HIF-1a, read-out: Kd): 120 nM

B1: yCD: yeast cytosine deaminase containing the A23L/V108I/I140L mutations; positive control (protein, UniProt Q12178 1-158, looked up, variant A23L V108I I140L)
Cytosine deaminase: MVTGGMASKWDQKGMDIAYEEALLGYKEGGVPIGGCLINNKDGSVLGRGHNMRFQKGSATLHGEISTLENCGRLEGKVYKDTTLYTTLSPCDMCTGAIIMYGIPRCVIGENVNFKSKGEKYLQTRGHEVVVVDDERCKKLMKQFIDERPQDWFEDIGE
Growth on "negative selection" minimal plates supplemented with 75 μg/ml 5FC (GIA39 E. coli cells; w/ HIF1-a plasmid, 1 mM arabinose): − | Growth on "negative selection" minimal plates supplemented with 75 μg/ml 5FC (GIA39 E. coli cells; w/ HIF1-a plasmid, No arabinose): − | Growth on "negative selection" minimal plates supplemented with 75 μg/ml 5FC (GIA39 E. coli cells; w/o HIF1-a plasmid, 1 mM arabinose): − | Growth on "negative selection" minimal plates supplemented with 75 μg/ml 5FC (GIA39 E. coli cells; w/o HIF1-a plasmid, No arabinose): −

B2: BLA: the enzyme TEM-1 beta-lactamase (protein, UniProt P62593 24-286, looked up)
Beta-lactamase TEM: HPETLVKVKDAEDQLGARVGYIELDLNSGKILESFRPEERFPMMSTFKVLLCGAVLSRVDAGQEQLGRRIHYSQNDLVEYSPVTEKHLTDGMTVRELCSAAITMSDNTAANLLLTTIGGPKELTAFLHNMGDHVTRLDRWEPELNEAIPNDERDTTMPAAMATTLRKLLTGELLTLASRQQLIDWMEADKVAGPLLRSALPAGWFIADKSGAGERGSRGIIAALGPDGKPSRIVVIYTTGSQATMDERNRQIAEIGASLIKHW
Effect of maltose on MIC of ampicillin (E. coli cells): not affect by maltose
